What all share (experiment): EMSA; 6 mM MgCl2; EMSA: 10 mM Tris-HCl pH 7.5, 6 mM MgCl2, 100 mM NaCl, 10% glycerol, 0.1% NP-40; 10 nM DNA, 0-1000 nM protein, 1 h at room temperature; 6% native PAGE
Common to all, as to settings: protein: recombinant; tags: 6xHis-SUMO, cleaved off; label: 5'-6-FAM on primer; 22 bp; 5' overhang 18 nt on template; 5' overhang 3 nt (TTT) on primer

The target in data set [1] is T1, DNA polymerase theta polymerase domain (PolQM1), T2161I (Homo sapiens, UniProt O75417 1792-2590, T2161I).
T1 sequence: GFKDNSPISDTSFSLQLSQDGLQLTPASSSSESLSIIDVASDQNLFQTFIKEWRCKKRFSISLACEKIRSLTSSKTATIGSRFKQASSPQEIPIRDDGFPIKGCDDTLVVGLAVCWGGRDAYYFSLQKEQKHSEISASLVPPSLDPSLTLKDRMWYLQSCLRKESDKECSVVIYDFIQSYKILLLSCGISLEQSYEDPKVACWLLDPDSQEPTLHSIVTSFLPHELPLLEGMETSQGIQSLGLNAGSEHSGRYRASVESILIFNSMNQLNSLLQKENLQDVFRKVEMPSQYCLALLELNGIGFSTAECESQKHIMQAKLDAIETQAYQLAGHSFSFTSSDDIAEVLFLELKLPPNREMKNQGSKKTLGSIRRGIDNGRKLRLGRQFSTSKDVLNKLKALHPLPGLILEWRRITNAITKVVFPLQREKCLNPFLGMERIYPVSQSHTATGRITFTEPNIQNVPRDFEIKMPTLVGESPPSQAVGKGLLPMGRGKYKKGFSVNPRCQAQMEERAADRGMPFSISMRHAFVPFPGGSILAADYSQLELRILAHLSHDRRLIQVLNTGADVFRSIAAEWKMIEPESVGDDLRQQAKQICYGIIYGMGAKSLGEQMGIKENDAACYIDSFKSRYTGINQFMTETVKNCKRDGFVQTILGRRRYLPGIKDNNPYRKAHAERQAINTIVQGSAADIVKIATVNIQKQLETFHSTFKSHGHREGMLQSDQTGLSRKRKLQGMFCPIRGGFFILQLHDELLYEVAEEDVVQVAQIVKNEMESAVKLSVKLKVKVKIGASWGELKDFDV

In data set [2] the target is T2, DNA polymerase theta polymerase domain (PolQM1), L2538R (Homo sapiens, UniProt O75417 1792-2590, L2538R).
T2 sequence: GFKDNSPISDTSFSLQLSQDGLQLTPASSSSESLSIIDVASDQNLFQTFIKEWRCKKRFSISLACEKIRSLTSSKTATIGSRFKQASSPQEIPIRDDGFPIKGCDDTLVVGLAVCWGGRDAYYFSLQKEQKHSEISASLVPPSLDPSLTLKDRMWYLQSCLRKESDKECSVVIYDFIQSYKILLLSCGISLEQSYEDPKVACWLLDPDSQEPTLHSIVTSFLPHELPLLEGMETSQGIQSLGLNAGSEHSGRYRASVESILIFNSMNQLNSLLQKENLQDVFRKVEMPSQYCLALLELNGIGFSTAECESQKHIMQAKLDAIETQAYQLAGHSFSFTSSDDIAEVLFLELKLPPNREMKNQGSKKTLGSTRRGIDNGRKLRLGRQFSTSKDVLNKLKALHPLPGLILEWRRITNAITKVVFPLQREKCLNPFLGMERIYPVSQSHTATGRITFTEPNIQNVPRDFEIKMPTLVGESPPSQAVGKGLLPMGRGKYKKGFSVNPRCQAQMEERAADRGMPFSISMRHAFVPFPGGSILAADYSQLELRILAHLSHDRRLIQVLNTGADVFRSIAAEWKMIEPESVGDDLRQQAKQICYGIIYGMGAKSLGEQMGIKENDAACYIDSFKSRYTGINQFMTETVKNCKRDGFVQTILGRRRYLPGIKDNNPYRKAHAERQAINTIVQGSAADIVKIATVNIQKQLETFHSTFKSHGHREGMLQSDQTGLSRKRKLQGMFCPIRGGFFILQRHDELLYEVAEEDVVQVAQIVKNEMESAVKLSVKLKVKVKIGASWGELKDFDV

Data set [3] addresses T3, DNA polymerase theta polymerase domain (PolQM1), E2406K (Homo sapiens, UniProt O75417 1792-2590, E2406K).
T3 sequence: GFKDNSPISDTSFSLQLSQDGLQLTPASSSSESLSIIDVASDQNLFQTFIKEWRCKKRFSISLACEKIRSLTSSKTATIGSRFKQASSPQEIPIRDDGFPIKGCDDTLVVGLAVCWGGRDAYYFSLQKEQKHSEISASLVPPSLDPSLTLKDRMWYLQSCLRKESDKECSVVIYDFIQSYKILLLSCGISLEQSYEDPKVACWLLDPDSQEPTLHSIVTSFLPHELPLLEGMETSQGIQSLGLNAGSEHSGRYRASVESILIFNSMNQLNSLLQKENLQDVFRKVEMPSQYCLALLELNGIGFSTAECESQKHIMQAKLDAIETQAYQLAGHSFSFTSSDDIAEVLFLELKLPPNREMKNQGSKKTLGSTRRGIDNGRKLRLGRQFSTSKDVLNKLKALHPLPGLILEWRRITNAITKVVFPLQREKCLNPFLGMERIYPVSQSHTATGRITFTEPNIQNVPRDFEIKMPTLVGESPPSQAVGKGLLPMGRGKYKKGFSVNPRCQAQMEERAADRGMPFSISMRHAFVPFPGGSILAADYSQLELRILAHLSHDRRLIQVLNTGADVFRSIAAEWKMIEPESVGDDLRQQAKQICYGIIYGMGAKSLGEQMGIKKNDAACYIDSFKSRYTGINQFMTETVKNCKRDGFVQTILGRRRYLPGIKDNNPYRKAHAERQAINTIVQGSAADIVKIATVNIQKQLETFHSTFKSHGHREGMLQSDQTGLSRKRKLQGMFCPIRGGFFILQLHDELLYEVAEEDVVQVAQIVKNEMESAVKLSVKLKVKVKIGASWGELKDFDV

Data set [4] deals with T4, DNA polymerase theta polymerase domain (PolQM1), WT (Homo sapiens, UniProt O75417 1792-2590).
T4 sequence: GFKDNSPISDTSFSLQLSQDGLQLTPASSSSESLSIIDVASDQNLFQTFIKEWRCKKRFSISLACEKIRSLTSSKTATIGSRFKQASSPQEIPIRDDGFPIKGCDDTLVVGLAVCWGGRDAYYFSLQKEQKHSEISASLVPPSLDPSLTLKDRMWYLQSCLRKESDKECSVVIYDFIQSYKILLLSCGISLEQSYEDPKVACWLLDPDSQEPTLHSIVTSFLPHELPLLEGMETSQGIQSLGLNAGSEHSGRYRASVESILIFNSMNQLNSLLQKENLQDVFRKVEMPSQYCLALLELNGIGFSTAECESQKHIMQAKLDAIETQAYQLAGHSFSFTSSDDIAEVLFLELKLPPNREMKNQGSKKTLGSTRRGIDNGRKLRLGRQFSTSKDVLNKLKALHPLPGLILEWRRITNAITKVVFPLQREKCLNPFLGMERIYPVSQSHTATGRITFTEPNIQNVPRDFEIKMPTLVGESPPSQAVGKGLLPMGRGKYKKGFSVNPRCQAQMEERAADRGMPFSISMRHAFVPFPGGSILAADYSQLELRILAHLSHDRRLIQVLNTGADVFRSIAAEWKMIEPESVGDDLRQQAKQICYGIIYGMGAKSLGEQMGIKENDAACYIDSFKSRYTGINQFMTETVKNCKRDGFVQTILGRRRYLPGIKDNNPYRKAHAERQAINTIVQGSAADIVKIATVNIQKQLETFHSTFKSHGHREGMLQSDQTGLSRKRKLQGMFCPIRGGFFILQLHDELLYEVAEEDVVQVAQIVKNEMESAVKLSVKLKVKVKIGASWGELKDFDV

B1: 25/40 primer-template duplex (CG template) (dsDNA)
DNA 1: TTTGCCTTGACCATGTAACAGAGAG
DNA 2: TCTCTTCTCTCACTCACGCTCTCTGTTACATGGTCAAGGC
In general, Kd refers to a measure of binding affinity in units of concentration. Turning to B1, the Kd in data set [1] was 13 ± 3 nM; in data set [2], 18 ± 4 nM; in data set [3], 14 ± 3 nM; in data set [4] it was 18 ± 3 nM.

(Values after publication PMC11080051, “Melanoma-Derived DNA Polymerase Theta Variants Exhibit Altered DNA Polymerase Activity”.)
